Measured values taken from PMC2680354 (Molecular cell, 2008).

B1: chemically crosslinked WASP VCA (xlWASP VCA) (other)
chain: GGRGALLDQIRQGIQLNKTPGAPESSALQPPPQSSEGLVGALMHVMQKRSRAIHSSDEGEDQAGDEDEDDEWDD
modifications: chemically crosslinked to the second copy (crosslinker and site not shown)
B2: cortactin NtA (peptide)
chain: MWKASAGHAVSITQDDGGADDWETDPDFVNDVSEKEQRWGAKTVQGSGHQEHINIHKLRENVFQEHQTLKEKELETGPKASHGY

Molecular target: Arp2/3 complex (UniProt P61158 1-418)
Assay: fluorescence polarisation

Row | Binder | Kd
1 | B1 | 70 nM
2 | B2 | 17 nM
